Patent US20090324601A1 (published 2009)

Experiments:
[1] = target: PDGFR-alpha on MG-63 cells (human, UniProt P16234 24-1089); assay: cell-based or functional assay; further: test concentration or dose not given here
PDGFR-beta = PDGFR-beta (UniProt P09619 33-530, limits assumed); assay: method not described
FLT3 = FLT3 (UniProt P36888 27-541, limits assumed); assay: method not described
c-kit = c-kit (UniProt P10721 26-520, limits assumed); assay: method not described
CSF-1R = CSF-1R (UniProt P07333 20-512, limits assumed); assay: method not described
Chain of CSF-1R (P07333 20-512 limits assumed): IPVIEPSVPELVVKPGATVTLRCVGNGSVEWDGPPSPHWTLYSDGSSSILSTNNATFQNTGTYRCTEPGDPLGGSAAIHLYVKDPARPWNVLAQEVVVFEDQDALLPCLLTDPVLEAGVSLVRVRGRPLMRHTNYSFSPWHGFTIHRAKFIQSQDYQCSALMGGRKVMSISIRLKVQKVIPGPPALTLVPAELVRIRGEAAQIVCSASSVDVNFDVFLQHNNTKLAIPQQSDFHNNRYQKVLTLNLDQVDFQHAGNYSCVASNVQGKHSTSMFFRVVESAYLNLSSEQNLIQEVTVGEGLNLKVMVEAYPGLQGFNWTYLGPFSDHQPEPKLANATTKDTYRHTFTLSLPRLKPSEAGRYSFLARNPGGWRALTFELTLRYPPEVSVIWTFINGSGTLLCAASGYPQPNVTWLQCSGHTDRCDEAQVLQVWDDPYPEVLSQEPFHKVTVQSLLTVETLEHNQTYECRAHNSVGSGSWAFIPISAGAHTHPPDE

Chain of PDGFR-beta (P09619 33-530 limits assumed): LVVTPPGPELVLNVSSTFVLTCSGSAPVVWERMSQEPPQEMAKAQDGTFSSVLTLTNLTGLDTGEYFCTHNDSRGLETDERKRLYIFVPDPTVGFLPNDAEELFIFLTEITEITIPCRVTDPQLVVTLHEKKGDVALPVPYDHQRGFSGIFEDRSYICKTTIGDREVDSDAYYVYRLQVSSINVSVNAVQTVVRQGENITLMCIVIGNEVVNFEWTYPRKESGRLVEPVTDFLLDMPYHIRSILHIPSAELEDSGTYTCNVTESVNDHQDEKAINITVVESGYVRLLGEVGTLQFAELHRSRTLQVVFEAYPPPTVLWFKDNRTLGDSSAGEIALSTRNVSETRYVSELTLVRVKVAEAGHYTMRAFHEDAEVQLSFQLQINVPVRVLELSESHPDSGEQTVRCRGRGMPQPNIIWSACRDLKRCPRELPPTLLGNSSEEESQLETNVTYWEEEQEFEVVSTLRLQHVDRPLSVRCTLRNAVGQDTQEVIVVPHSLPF
Chain of c-kit (P10721 26-520 limits assumed): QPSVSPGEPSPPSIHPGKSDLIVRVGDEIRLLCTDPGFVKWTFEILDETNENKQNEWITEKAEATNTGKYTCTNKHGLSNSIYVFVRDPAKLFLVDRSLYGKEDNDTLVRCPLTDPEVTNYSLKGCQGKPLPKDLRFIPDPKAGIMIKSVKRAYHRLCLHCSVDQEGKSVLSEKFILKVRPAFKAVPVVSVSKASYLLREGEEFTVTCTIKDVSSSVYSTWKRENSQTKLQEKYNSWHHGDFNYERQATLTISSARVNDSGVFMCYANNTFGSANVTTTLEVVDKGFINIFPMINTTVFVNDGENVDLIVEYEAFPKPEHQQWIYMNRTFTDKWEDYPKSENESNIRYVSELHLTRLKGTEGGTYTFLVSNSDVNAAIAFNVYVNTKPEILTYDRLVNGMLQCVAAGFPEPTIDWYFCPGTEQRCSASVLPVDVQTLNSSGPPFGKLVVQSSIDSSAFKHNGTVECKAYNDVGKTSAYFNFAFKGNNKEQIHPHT
Chain of PDGFR-alpha on MG-63 cells (P16234 24-1089): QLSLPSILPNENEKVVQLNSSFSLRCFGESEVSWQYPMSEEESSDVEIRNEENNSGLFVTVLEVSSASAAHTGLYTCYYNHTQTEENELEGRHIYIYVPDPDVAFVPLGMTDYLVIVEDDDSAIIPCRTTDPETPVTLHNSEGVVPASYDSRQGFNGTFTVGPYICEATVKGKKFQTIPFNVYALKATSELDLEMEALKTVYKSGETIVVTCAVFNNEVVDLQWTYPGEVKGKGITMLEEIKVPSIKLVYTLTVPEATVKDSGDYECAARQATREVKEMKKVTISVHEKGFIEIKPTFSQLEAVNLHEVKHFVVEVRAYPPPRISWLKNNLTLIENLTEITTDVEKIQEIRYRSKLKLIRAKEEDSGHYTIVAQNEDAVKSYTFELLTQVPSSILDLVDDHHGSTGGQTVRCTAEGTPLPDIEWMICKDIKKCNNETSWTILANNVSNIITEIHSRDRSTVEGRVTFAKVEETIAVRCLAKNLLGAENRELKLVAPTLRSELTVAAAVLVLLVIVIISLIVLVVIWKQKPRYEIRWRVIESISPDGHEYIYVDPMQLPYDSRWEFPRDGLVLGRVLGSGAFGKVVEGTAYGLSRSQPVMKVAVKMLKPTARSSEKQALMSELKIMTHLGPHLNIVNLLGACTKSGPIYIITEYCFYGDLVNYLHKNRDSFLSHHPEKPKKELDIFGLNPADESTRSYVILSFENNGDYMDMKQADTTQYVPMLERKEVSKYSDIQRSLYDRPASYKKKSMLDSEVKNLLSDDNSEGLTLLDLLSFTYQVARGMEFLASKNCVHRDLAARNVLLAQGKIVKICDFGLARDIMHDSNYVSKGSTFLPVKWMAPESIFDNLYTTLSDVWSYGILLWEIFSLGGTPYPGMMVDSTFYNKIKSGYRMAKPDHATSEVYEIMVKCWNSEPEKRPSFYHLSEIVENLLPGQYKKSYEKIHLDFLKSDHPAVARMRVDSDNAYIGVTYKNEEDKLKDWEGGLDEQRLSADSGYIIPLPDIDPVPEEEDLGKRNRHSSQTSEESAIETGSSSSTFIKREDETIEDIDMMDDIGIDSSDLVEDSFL

B1: 3.772.2 (antibody, V domains shown)
VH: QVQLVESGGGVVQPGRSLRLSCAASGFTFSSYGMHWVRQAPGKGLEWVAVIWYDRSNKYYADSVKGRFTISRDNSKNTLYLQMNSLRAEDTAVYYCAGGRSRGAFDFWGQGTLVTVSS
VL: DIQMTQSPSSVSASVGDRVTITCRASQDISSWLAWYQQKAGKAPKLLIYAASSLQSGVPSRFSGSGSGTDFTLTISSLQPEDFATYYCQRTNSFPRTFGQGTKVEIK
Q: Which “Average pTyr Inhibition” value [1] does the source give for B1 here?
A: Its value is 91%.

B2: 3.87.1.1 (antibody, V domains shown)
VH: QVQLVESGGGVVQPGRSLRLSCAASGFTFSSYGMHWVRQAPGKGLEWVAVIWYDRSNKYYADSVKGRFTISRDNSKNTLYLQMNSLRAEDTAVYYCAGGRSRGAFDYWGQGTLVTVSS
VL: DIQMTQSPSSVSASVGDRVTITCRASQGISSWLAWYQQKPGKAPKLLIFAASSLQSGVPSRFSGSGSGTDFTLTISSLQPEDFATYYCQRTNSFPRTFGQGTKVEIK
notes: Variable regions only
Q: Does B2 bind (PDGFR-beta)?
A: Result: no binding

Q: Does B2 bind (FLT3)?
A: Result: no binding

Q: Does B2 bind (c-kit)?
A: Result: no binding

Q: Does B2 bind (CSF-1R)?
A: Result: no binding

B3: 3.457.3.1 (antibody, V domains shown)
VH: QVQLVESGGGVVQPGRSLRLSCAASGFTFSSYGMHWVRQAPGKGLEWVAVIWYDRSNKYYADSVKGRFTISRDNSKNTLYLQMNSLRAEDTAVYYCAGGRSRGAFDFWGQGTLVTVSS
VL: DIQMTQSPSSVSASVGDRVTITCRASQGISSWLAWYQQKAGKAPKLLIYSASSLQSGVPSRFSGSGSGTDFTLTISSLQPEDFATYYCQRTNSFPRTFGQGTKVEIK
notes: Variable regions only
Q: Does B3 bind (PDGFR-beta)?
A: Result: no binding

Q: Does B3 bind (FLT3)?
A: Result: no binding

Q: Does B3 bind (c-kit)?
A: Result: no binding

Q: Does B3 bind (CSF-1R)?
A: Result: no binding

B4: 2.351.3 (antibody, V domains shown)
VH: QVQLVQSGAEVKKPGASVKVSCKASGYTFIGYYLHWVRQAPGQGLEWMGSINPNSGGTNYAQKFQGRVTMIRDTSINTAYMELSRLRSDDTAVYYCARDKRITMVRGVHYLYYGWDVWGQGTTVTVSS
VL: DIQMTQSPSSLSASVGDRVTITCRASQVISNYLAWYQQKPGKVPQLLIYAASTLQSGVPSRFSGSGSGTDFTLTISSLQPEDVATYYCQNYKSAPWTFGQGTKVEIK
notes: Variable regions only
Q: Does B4 bind (PDGFR-beta)?
A: Result: no binding

Q: Does B4 bind (FLT3)?
A: Result: no binding

Q: Does B4 bind (c-kit)?
A: Result: no binding

Q: Does B4 bind (CSF-1R)?
A: Result: no binding

B5: 2.796.2 (antibody, V domains shown)
VH: QVQLVESGGGLVKPGGSLRLSCAASGFTFSDYYMNWIRQAPGKGLEWVSYISSSGSIIYYADSVKGRFTISRDNAKNSLYLQMNSLRAEDTAVYYCARDGHIAARGMDVWGQGTTVTVSS
VL: DIQMTQSPSSLSASVGDRVTITCRASQSFSRYINWYQQKPGKAPKLLIYAASSLQGGVPSRFSGSGSGTDFTLTISSLQPEDFATYYCQQTYSNPPITFGQGTRLEIK
notes: Variable regions only
Q: Does B5 bind (PDGFR-beta)?
A: Result: no binding

Q: Does B5 bind (FLT3)?
A: Result: no binding

Q: Does B5 bind (c-kit)?
A: Result: no binding

Q: Does B5 bind (CSF-1R)?
A: Result: no binding

B6: 2.449.1.3 (antibody, V domains shown)
VH: QVQLVESGGGLVKPGGSLRLSCAASGFTFSDYYMNWIRQAPGKGLEWVSYISSSGSIIYYADSVKGRFTISRDNAKNSLYLQMNSLRAEDTAVYYCAREGRIAARGMDVWGQGTTVTVSS
VL: DIQMTQSPSSLSASVGDRVSITCRPSQSFSRYINWYQQKPGKAPKLLIHAASSLVGGVPSRFSGSGSGTDFTLTISSLQPEDFATYYCQQTYSNPPITFGQGTRLEMK
notes: Variable regions only
Q: What does the source list for B6?
A: binding result (PDGFR-beta): no binding; binding result (FLT3): no binding; binding result (c-kit): no binding; binding result (CSF-1R): no binding

B7: 2.2071.1.3 (antibody, V domains shown)
VH: QVQLVESGGGLVKPGGSLRLSCAASGFTFSDYYMNWIRQAPGKGLEWVSYISSSGSIIYYADSVKGRFTISRDNAKNSLYLQMNSLRAEDTAVYYCARDGRIVARGMDVWGQGTTVTVSS
VL: DIQMTQSPSSLSASVGDRVTLTCRASHSINRYINWYQQKPGKAPKLLIYAASSLQSGVPSRFSGNGSGTDFTLTISSLQPEDFATYYCQQSYSTPPITFGQGTRLEIT
notes: Variable regions only
Q: Does B7 bind (PDGFR-beta)?
A: Result: no binding

Q: Does B7 bind (FLT3)?
A: Result: no binding

Q: Does B7 bind (c-kit)?
A: Result: no binding

Q: Does B7 bind (CSF-1R)?
A: Result: no binding
